Measured values: patent US20200223912A1
Blank lines part the entries; values can stand above or below the binder they belong to.

Legend:
[1] = biological target: human Tau(pS422) fragment (residues 416 to 430 with phosphorylated serine 422) (human); assay: ELISA, coated antigen
[2] = biological target: human Tau(pS422) fragment (residues 416 to 430 with phosphorylated serine 422) (human); assay: ELISA, ratio of EC50 values
[3] = biological target: human Tau(pS422) fragment (residues 416 to 430 with phosphorylated serine 422) (human); assay: ELISA, biotinylated peptide on streptavidin plate

- EC50 [1]: 4.4 ng/mL
B1: VH32/VL21 (antibody, V domains shown)
VH: EVQVLESGGGLVQPGGSLRLSCAVSGFSLSSNAINWVRQAPGKGLEWVGYIAVSGNTYYASWAKGRFTISRDNSKNTVYLQMNSLRAEDTAVYYCGKSNIWGQGTLVTVSS
VL: AQVMTQSPSSLSASVGDRVTITCRSSQSVRTNKLAWFQQKPGQPPKRLIYSASTLDFGVPSRFSGSGSGTEFTLTISSLQPEDFATYYCLGYFDSSADIVAFGGGTKVEIK

- EC50 [1]: 6.3 ng/mL
- selectivity over non-phosphorylated Tau peptide [2]: > 100 fold
- EC50 [3]: 1.1 ng/mL
B2: rabbit antibody Mab 086 (VH00/VL00) (antibody, V domains shown)
VH: QSVEESGGRLVTPGTPLTLTCTVSGFSLSSNAINWVRQAPGKGLEWIGYIAVSGNTYYASWAKGRFTISKASTTVDLKMTSPTAEDTGTYFCGKSNIWGPGTLVTVSL
VL: AQVLTQTTSPVSAAVGSTVTISCQSSQSVRTNKLAWFQQKPGQPPKRLIYSASTLDFGVPSRFSASGSGTQFTLTISDVQCDDAATYYCLGYFDCSIADCVAFGGGTEVVVK
